Measured values as given in patent US12514938B2, “Fibroblast activation protein targeting peptides” (PERSPECTIVE THERAPEUTICS, INC., priority 2023, dated 2026).
*1 amine or outer side, *2 acyl side, *3 side chain or, on linkers, in order; H or OH if unused. Where a SMILES comes first, the peptide text is derived from it. Bridges are numbered along the chain shown (N, C = ends). The star is where a group is joined. X1 = NC(=O)CN1CCN(CC(=O)O)CCN(CC(=O)*)CCN(CC(=O)O)CC1; mXylylene = c1cc(C[*:1])cc(C[*:2])c1; oXylylene = c1ccc(C[*:2])c(C[*:1])c1; PEG2 = NCCOCCOCCC(=O)O

These compounds were tested against T1, Human Fibroblast Activation Protein (FAP) (Homo sapiens, UniProt Q12884) (assay: Enzyme inhibition assay against human FAP (substrate Z-GP-AMC), Example 1). Conditions: human FAP 5 ng/well, 50 μM Z-GP-AMC; Ki from IC50 by Cheng-Prusoff.
T1 sequence (Q12884 1-760): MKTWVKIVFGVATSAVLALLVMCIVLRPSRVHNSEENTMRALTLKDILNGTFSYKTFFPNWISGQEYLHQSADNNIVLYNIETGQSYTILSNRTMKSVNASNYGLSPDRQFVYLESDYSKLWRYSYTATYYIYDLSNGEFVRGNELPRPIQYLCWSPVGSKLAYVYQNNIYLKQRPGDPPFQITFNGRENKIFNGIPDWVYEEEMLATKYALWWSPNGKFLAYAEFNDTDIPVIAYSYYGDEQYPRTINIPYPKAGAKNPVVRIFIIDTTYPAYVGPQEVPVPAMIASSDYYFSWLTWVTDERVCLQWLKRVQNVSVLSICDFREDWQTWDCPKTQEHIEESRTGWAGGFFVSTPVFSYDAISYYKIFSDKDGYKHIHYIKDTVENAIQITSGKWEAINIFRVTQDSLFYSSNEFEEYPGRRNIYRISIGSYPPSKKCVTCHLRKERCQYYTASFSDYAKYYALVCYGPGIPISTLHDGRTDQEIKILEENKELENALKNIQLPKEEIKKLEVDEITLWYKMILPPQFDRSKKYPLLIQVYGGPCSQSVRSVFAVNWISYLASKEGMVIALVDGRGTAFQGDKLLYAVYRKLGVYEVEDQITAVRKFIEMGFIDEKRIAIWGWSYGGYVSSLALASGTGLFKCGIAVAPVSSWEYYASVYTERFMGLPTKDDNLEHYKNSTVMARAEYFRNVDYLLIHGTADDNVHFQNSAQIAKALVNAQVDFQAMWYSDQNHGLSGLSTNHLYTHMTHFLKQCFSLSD
Type: biochemical
In short: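 FAP (5 ng/well) preincubated 10 min at RT with peptide (10^−6 to 10^−12), then 50 μM Z-GP-AMC added for 1 h at RT, protected from light. Buffer 50 mM Tris-HCl, 1 M NaCl, 1 mg/mL BSA, pH 7.5; fluorescence at ex/em 360/460. IC50 from non-linear regression, converted to Ki via Cheng-Prusoff using known substrate Km.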

| Ki | Compound |
| --- | --- |
| 0.54 nM | C[C@@H](O)[C@@H]1NC(=O)[C@@H](NC(=O)CCOCCOCCNC(=O)CN2CCN(CC(=O)O)CCN(CC(N)=O)CCN(CC(=O)O)CC2)CSCc2cccc(c2)CSC[C@@H](C(N)=O)NC(=O)[C@H](Cc2c[nH]c3ccccc23)NC(=O)[C@H](Cc2c[nH]c3ccccc23)NC(=O)[C@H](CCC(N)=O)NC(=O)[C@H](CCC(=O)O)NC(=O)[C@H](Cc2c[nH]c3ccccc23)NC(=O)[C@@H]2CCCN2C1=O [VMT-FAP-2-83, PSC-PEG2-[C(mXdB)TPWEQWWC]-NH2] ({X1-PEG2}-CTPWEQWWC-NH2; linker 1-9 via mXylylene) |
| 115 nM | C[C@@H](O)[C@@H]1NC(=O)[C@@H]2CCCN2C(=O)[C@H](Cc2c[nH]c3ccccc23)NC(=O)[C@H](CCC(=O)O)NC(=O)[C@H](CCC(N)=O)NC(=O)[C@H](Cc2c[nH]c3ccccc23)NC(=O)[C@H](Cc2c[nH]c3ccccc23)NC(=O)[C@@H](NC(=O)CCOCCOCCNC(=O)CN2CCN(CC(=O)O)CCN(CC(N)=O)CCN(CC(=O)O)CC2)CSCc2ccccc2CSC[C@@H](C(=O)N[C@@H](CO)C(N)=O)NC1=O [VMT-FAP-2-84, PSC-PEG2-[C(oXdB)WWQEWPTC]S-NH2] ({X1-PEG2}-CWWQEWPTCS-NH2; linker 1-9 via oXylylene) |
| 4.59 nM | NODA-PEG2-[C(oXdB)TPWEQWWC]-NH2 [VMT-FAP-2-77] |
| 0.79 nM | PSC-Bn-NCS-PEG1-[C(oXdB)TPWEQWWC]-NH2 [VMT-FAP-2-72] |
| 3.61 nM | PSC-Bn-NCS-PEG2-[C(oXdB)TPWEQWWC]-NH2 [VMT-FAP-2-73] |

The compounds below were run on hFAP-HT1080 tumors (assay: Radiotherapeutic efficacy in human fibrosarcoma xenograft model). Conditions: 4.5-5.4 MBq over three fractionated doses, weight recorded over 70 days.
Type: in vivo, athymic nude mice
Experimental: In vivo efficacy was determined in a sarcoma model where hFAP is expressed on the membrane of cancer cell surface. HT1080 cells engineered to express hFAP. 8 days prior to treatment, athymic nude mice were inoculated with approximately 2 million cells. The mice were then randomized by tumor size and divided into two groups for control and treatment. The treated group was treated with 4.5-5.4 MBq [^212Pb]-Pb-VMT-FAP-2-59 over three fractionated doses approximately 2 weeks apart. Two mice were treated a fourth time, at day 48 and day 53 with an additional 1.9-2.1MBq. Tumor volume was measured via caliper, and weight recorded over 70 days. […] Efficacy of VMT-FAP-2-59 in athymic nude mice bearing HT1080-FAP tumors. Tumor volume and weight was monitored over 70 days. The treatment group was given 4.5-5.4MBq ^212Pb-VMT-FAP-2-59 over 3 fractionated doses. Two mice with tumor recurrence were given an additional 1.9-2.1 MBq, as indicated by dashed arrows.

| Compound | Treatment-related toxicity |
| --- | --- |
| C[C@@H](O)[C@@H]1NC(=O)[C@@H](NC(=O)CCOCCOCCNC(=O)CN2CCN(CC(=O)O)CCN(CC(N)=O)CCN(CC(=O)O)CC2)CSCc2ccccc2CSC[C@@H](C(N)=O)NC(=O)[C@H](Cc2c[nH]c3ccccc23)NC(=O)[C@H](Cc2c[nH]c3ccccc23)NC(=O)[C@H](CCC(N)=O)NC(=O)[C@H](CCC(=O)O)NC(=O)[C@H](Cc2c[nH]c3ccccc23)NC(=O)[C@@H]2CCCN2C1=O [[^212Pb]VMT-FAP-2-59, metal not drawn] ({X1-PEG2}-CTPWEQWWC-NH2; linker 1-9 via oXylylene) | No treatment-related toxicity was observed |
